Test: label from the status in PepcDB records
For “LFTESAKAVLAIAQEEAKYFRHQSVGSEHLLLALVLEPNGIAGKTLRQLNTDTEDIREEIEHLSGYGTMQSPMGNNNLYLPYSPRAKQIFAYAGDEAKRLGAQKIGTEHLLLGLLRDEEILASRILVNLGLSLSKMRQLLLKKMG”, the protein production was “failed”.
In the case of “LGINEISSSFFSLLLEILLLESQASLPMLEERVLDWQSSPASSLNSWFSAAPNWAELVLPALQYLAGESRAVPSSFSPFVEFKEKTQQWKLLGQSQDNEKELAALFQLWLETKDQAFCKQENEDSS”, the protein production was “not failed”.
In the case of “LKGEPDCYALSLESSEQLTLEIPLNDSGSAGLGVSLKGNKSRETGTDLGIFIKSIIHGGAAFKDGRLRMNDQLIAVNGETLLGKSNHEAMETLRRSMSMEGNIRGMIQLVILRR”, the protein production was “not failed”.
With “LLLLHGFTSHPVLTLGPLSERLKEAGWEVRQPALPGHGTRPEDLLKVRFQDWLLAAEEAYLELPEPRGVVGLSMGGLLAAHLAARHPTKALVALAPAFALKNPLAPYLHWLIPRFPGPPSIEDPELRKRNPNYPYFPTRAVLELLALMRKTPEVLPRVKARALVVEAGKDRVVKGVDRYFALLGSPRKDHLVFPESGHDLLLDRDREEVARAVRDWL” the protein production was “failed”.
For “LLTRQLEKSRQQQQLMVAIALIIRQSLKLEDILSVTVAEVRQFLQADRVLIYQFQPDMSGIVVAESILPGWIATKGAQIEDKCFQDSAGHNHQLKKRAINDIYQAGLTNCYLELLEQFQVKATLIVPIMVTNKSWGLLIAHQCAAPHHWQSFELDLLEQLAVQIAIAIQQASAYEQIQTELQERKRVEATLRESEQRFRQMADTAPVLIWMSGL”, the protein production was “failed”.
In the case of “LPKLREDFKMQNKSVFILGASGETGKVLLKEILGQNLFSKVTLIGRRKLTFEEEAYKNVNQEVVDFEKLDVYASAFQGHDVGFCCLGTTRSKAGAEGFVRVDRDYVLKSAELAKAGGCKHFNLLSSRGADKSSSFLYLQVKGEVEAKVEELKFDRLSVFRPGVLLCDRQESRPGEWLARKFFGSLPDSWASGYAVPVVTVVRAMLNNLVSPSSGQMELLENKAILHLGKDRDVPKL”, the protein production was “not failed”.
With “LPKPGVYYFPWEVSDGHVPEGSTLRTFGRLYLYDMARSLMTLAAPQKPDQCQLLVCTNLVEPFEAHVNFLYMVLGDLERMEGGAFVVRARLLTCVEGMDLSLLEKAILEQRRHLQKRQQPIGDASTLQTPTPAPQSIPSDSLSLEPENRG” the protein production was “failed”.
For “LRETEARLQRLADNLPGMLYEFCLKPDGTMTFPYVSSGCLELIECSPQELQDDASLTFASTYPEDIIGLQEAIANSAKTLQNFEHEWRIITSSGQLKWVKGASRPERKPGGEITWYGYLLDVSEQQAALRERKQADQQ”, the protein production was “not failed”.
In the case of “LRGMLPGSKLCEKKIVLSPSANMAAELKSEGKLFMLKRLRLADLEPMAIETSLLPINRFPSLENRNFENESLYEILEEEYNIKMTKAQQKIEVRMPTPQESELLDINYTIPVFHFKQVTFDQNDTIFEVAHSVYRGDRYEIETEIYR”, the protein production was “failed”.
For “LRKQVEELFERKYAQAIKAKGPVTIPYPLFQSHVEDLYVEGLPEGIPFRRPSTYGIPRLERILLAKERIRFVIKKHELLNSTREDL”, the protein production was “not failed”.
With “LRRGHLKLQRDGQIIGHTPEEWEQIFREVWPEYEIEPNPLPGYAPFDIGMWLTVEAPAYAVWIDPEDGSEYWAG” the protein production was “failed”.
For “LRSRRKPSSRIGRRPSTTQDRISTVGIELFTEQGFDATSVDEVAEASGIARRTLFRYFPSKNAIPWGDFDAHLAEMRAQLAAQPDDIPIVDGLTAALLQFNAFPASEEINHRKRMGLILRVPALQAYSVVMYEGWRNVIAEYVASRLGTSPTDHVPRTVGYLLLGVAMSAYEQWLDDDSLELNELLASGMQSLYDGLSSLGEPDTRT”, the protein production was “not failed”.
For “LSPQVRTAHIGDVPVLVRLMSEFYQEAGFALPHDAAIRAFKALLGKPDLGRIWLIAEGTESVGYIVLTLGFSMEYGGLRGFVDDFFVRPNARGKGLGAAALQTVKQGCCDLGVRALLVETGPEDHPARGVYSRAGFEESGRMLLGQALAPPIHEA”, the protein production was “not failed”.
In the case of “LSQAEQDKLDAAVFRQLLQHLDQHKEVQNIDLMILADFCRNCLCKWYAAEAEKQGLDLNIDDARERVYGMTYDEWKANHQPPATPEQLAAFEAKTKSK”, the protein production was “failed”.
For “LSRVGSAEWNLLTDEATWSGELYQILGRDPAAPPLTLDELPSFVHDEDRPRLTAMVTDCLIDAKPIDGEFRIVRPDGGVRTVHMMGEPVLDAHGSTASMWAVLRDVSE”, the protein production was “not failed”.
For “LTAIEARVIGCLIEKEVTTPDQYPLSLNALTNASNQKSNREPVMALSESDVLDAVDALIERRLVSDESAFNSRVSKYQHRFCNTEFGDLKLSEQEKGIICCMLLRGAQTPGEIRTRTNRLATFHDVKEVEAVLEHLASEEKGPLVVKLPREAGKRESRYMHLFCGEVDVSAMAAAVPAT”, the protein production was “failed”.
For “LTESEERWRLALDAANLGFWDWNVLTAKVVWSENHERLFGLVSGSFDGTYETFLSCVHPEDRESVIQVIGVCLENKTDYYDEFRIVWPDKSIHWIAAKGRFFYNDQGQPVRMIGVCMDITKSKRTEEN”, the protein production was “failed”.
With “LTSSNALRGDAHSRLAAHRGLLERTSRTTRVAGILRDAIIDGTFRPGARLSEPDICAALDVSRNTVREAFQILIEDRLVAHELNRGVFVRVPTAEDITELYICRRVVECAGVNGFDPATGDLSRVAEALDLADERYAVEDWTGVGTADIHFHSALASLNNSNRIDELMRSVWNEARLVFHVMDDAHRFHGPYLTRNHEIYDALAAGNTEAAGQLLKTYLEDAEAQILGAYRPVSG” the protein production was “not failed”.
For “MAAADAEAVPARGEPQQDCCVKTELLGEETPMAADEGSAEKQAGEAHMAADGETNGSCENSDASSHANAAKHTQDSARVNPQDGTNTLTRIAENGVSERDSEAAKQNHVTADDFVQTSVIGSNGYILNKPALQAQPLRTTSTLASSLPGHAAKTLPGGAGKGRTPSAFPQTPAAPPATLGEGSADTEDRKLPAPGADVKVHRARKTMPKSVVGLHAASKDPREVREARDHKEPKEEINKNISDFGRQQLLPPFPSLHQSLPQNQCYMATTKSQTACLPFVLAAAVSRKKKRRMGTYSLVPKKKTKVLKQRTVIEMFKSITHSTVGSKGEKDLGASSLHVNGESLEMDSDEDDSEELEEDDGHGAEQAAAFPTEDSRTSKESMSEADRAQKMDGESEEEQESVDTGEEEEGGDESDLSSESSIKKKFLKRKGKTDSPWIKPARKRRRRSRKKPSGALGSESYKSSAGSAEQTAPGDSTGYMEVSLDSLDLRVKGILSSQAEGLANGPDVLETDGLQEVPLCSCRMETPKSREITTLANNQCMATESVDHELGRCTNSVVKYELMRPSNKAPLLVLCEDHRGRMVKHQCCPGCGYFCTAGNFMECQPESSISHRFHKDCASRVNNASYCPHCGEESSKAKEVTIAKADTTSTVTPVPGQEKGSALEGRADTTTGSAAGPPLSEDDKLQGAASHVPEGFDPTGPAGLGRPTPGLSQGPGKETLESALIALDSEKPKKLRFHPKQLYFSARQGELQKVLLMLVDGIDPNFKMEHQNKRSPLHAAAEAGHVDICHMLVQAGANIDTCSEDQRTPLMEAAENNHLEAVKYLIKAGALVDPKDAEGSTCLHLAAKKGHYEVVQYLLSNGQMDVNCQDDGGWTPMIWATEYKHVDLVKLLLSKGSDINIRDNEENICLHWAAFSGCVDIAEILLAAKCDLHAVNIHGDSPLHIAARENRYDCVVLFLSRDSDVTLKNKEGETPLQCASLNSQVWSALQMSKALQDSAPDRPSPVERIVSRDIARGYERIPIPCVNAVDSEPCPSNYKYVSQNCVTSPMNIDRNITHLQYCVCIDDCSSSNCMCGQLSMRCWYDKDGRLLPEFNMAEPPLIFECNHACSCWRNCRNRVVQNGLRARLQLYRTRDMGWGVRSLQDIPPGTFVCEYVGELISDSEADVREEDSYLFDLDNKDGEVYCIDARFYGNVSRFINHHCEPNLVPVRVFMAHQDLRFPRIAFFSTRLIEAGEQLGFDYGERFWDIKGKLFSCRCGSPKCRHSSAALAQRQASAAQEAQEDGLPDTSSAAAADPL”, the protein production was “failed”.
In the case of “MAAAFASLPTFSVVNSSRFPRRRIGFSCSKKPLEVRCSSGNTRYTKQRGAFTSLKECAISLALSVGLMVSVPSIALPPNAHAVANPVIPDVSVLISGPPIKDPEALLRYALPIDNKAIREVQKPLEDITDSLKIAGVKALDSVERNVRQASRTLQQGKSIIVAGFAESKKDHGNEMIEKLEAGMQDMLKIVEDRKRDAVAPKQKEILKYVGGIEEDMVDGFPYEVPEEYRNMPLLKGRASVDMKVKIKDNPNIEDCVFRIVLDGYNAPVTAGNFVDLVERHFYDGMEIQRSDGFVVQTGDPEGPAEGFIDPSTEKTRTVPLEIMVTGEKTPFYGSTLEELGLYKAQVVIPFNAFGTMAMAREEFENDSGSSQVFWLLKESELTPSNSNILDGRYAVFGYVTDNEDFLADLKVGDVIESIQVVSGLENLANPSYKIAG”, the protein production was “failed”.
For “MAAARDQLQMAADVARLGIWRWNLADDSLQWNERMCEMYGQPLALRDGGLVYEHWRSRLHPEDLERTEASLRAAVEGRGNYDVIFRVVLPDGGIRFIQAGAQVERDADGNPLQVTGINIDITSDQQLQARLREAKEQADAASAAKSSFLANMSHEIRTPMNAVLGML”, the protein production was “failed”.
In the case of “MAADESYPSVKERAFFQGLPFDYAVVFDNALIDRLFSRLRQERALVEDGLLARPDHRPWRLGALITEADTLDRRLSEQIRCLSGQSLPVASIALVTATTEAREAVSLWASVTCPPNVVVTPDPRAWMAEADLDLVVVFAPGALAHPGLFAALGRALQRDGADFAVWNHLLVRRRAEAPGQDITYLRCPDPTRQPVALAHMEAAGPAWAATPRLFETIKGDLGKALIGMARHPLSIALLRGKPKVVRLNEFLGACRVDSLGTPPWPRQSALVEAYGAALEDETFRLEIDPAHPTQPIRLTPRRRAHSIDIVINFRDKPELTLAAMGSIYAQTTTARVSLFLIDNQSTPAARAAIDAEAARAPAGIAVRVLSYDRPFNHSAQTNLGAAAGNGEALVFMSNDCALVDPGALDEMAAWALAPGVGTVGVRLETAEGRLACSGICALYPDHDFHPIVAEGFDQLGAGLNRETFANTFACACLARAVFRQAGPLDAIGFPIGLNDVDYCLRLRERGLRHLYLGAFLARHQALGSRPASDDGAQSAFLRQTYGHLLFDKEYMLEYDFLRQFTAAKLRQDIRSQRDKTTTVLEHHHHHH”, the protein production was “failed”.
In the case of “MAAEIHSRPQSSRPVLLSKIEGHQDAVTAALLIPKEDGVITASQDNGAVMEFHVSEDFNKMNFIKTYPAHQNRVSAIIFSLATEWVISTGHDKCVSWMCTRSGNMLGRHFFTSWASCLQYDFDTQYAFVGDYSGQITLLKLEQNTCSVITTLKGHEGSVACLWWDPIQRLLFSGASDNSIIMWDIGGRKGRTLLLQGHHDKVQSLCYLQLTRQLVSCSSDGGIAVWNMDVSREEAPQWLESDSCQKCEQPFFWNIKQMWDTKTLGLRQHHCRKCGQAVCGKCSSKRSSYPVMGFEFQVRVCDSCYDSIKDEDRTSLATFHEGKHNISHMSMDIARGLMVTCGTDRIVKIWDMTPVVGCSLATGFSPH”, the protein production was “failed”.
With “MAAIPALDPEAEPSMDVILVGSSELSSSVSPGTGRDLIAYEVKANQRNIEDICICCGSLQVHTQHPLFEGGICAPCKDKFLDALFLYDDDGYQSYCSICCSGETLLICGNPDCTRCYCFECVDSLVGPGTSGKVHAMSNWVCYLCLPSSRSGLLQRRRKWRSQLKAFYDRESENPLEMFETVPVWRRQPVRVLSLFEDIKKELTSLGFLESGSDPGQLKHVVDVTDTVRKDVEEWGPFDLVYGATPPLGHTCDRPPSWYLFQFHRLLQYARPKPGSPRPFFWMFVDNLVLNKEDLDVASRFLEMEPVTIPDVHGGSLQNAVRVWSNIPAIRSSRHWALVSEEELSLLAQNKQSSKLAAKWPTKLVKNCFLPLREYFKYFSTELTSSL” the protein production was “failed”.
In the case of “MAAITTGVVLLRWQLLSAVLMFLASTLNIRFRKSDYIGLAVISSGLGVVSACWFATGLLGITMMDLAAIWHNIEAVMVETMSQTPPEWPMVLT”, the protein production was “failed”.
For “MAAKLEKTTNSFEVITREWYAKFSPTWNESHGERIIRRFERDIFPWIGSKPISEIAAPELLATVRRIESRGAVETAHRALGNCGQVFRYAIATARATRDISADLRGALPPVKGEHLEHHHHHH”, the protein production was “not failed”.

From a protein production outcome set (Wang et al. 2014)
